Results: article PMC10257199
Read-outs that look alike come from different tables or passages of the source.

Experiments:
[1] = biological target: MBP-Vpu fusion protein (His8-MBP-linker-full-length HIV-1 Vpu, Q36C) (HIV-1); assay: SEC
[2] = biological target: MBP-Vpu fusion protein (His8-MBP-linker-full-length HIV-1 Vpu, Q36C) (HIV-1); assay: SEC; remark: listed apart in the source
[3] = biological target: MBP-Vpu fusion protein spin-labeled at residue Q36C (HIV-1); assay: DEER
[4] = biological target: MBP-Vpu fusion protein spin-labeled at residue Q36C (HIV-1); assay: DEER; remark: listed apart in the source
[5] = biological target: MBP-Vpu fusion protein spin-labeled at residue Q36C (HIV-1); assay: DEER; remark: listed apart in the source

MBP-Vpu fusion protein (His8-MBP-linker-full-length HIV-1 Vpu, Q36C)
stoichiometry N [1]: 5 | stoichiometry N [2]: 5

MBP-Vpu fusion protein spin-labeled at residue Q36C
DEER modulation depth [3]: 0.24 | stoichiometry N [3]: > 3 | DEER modulation depth [4]: 0.56 | stoichiometry N [5]: 5
